Earlier results on 1 substance are cited in article PMC8959454.

The target of series [1] is CKAP4 ECD (Homo sapiens) (UniProt Q07065).
In series [2] the target is LRP6 (Homo sapiens) (UniProt O75581).
Chain of UniProt O75581 (O75581 20-1370): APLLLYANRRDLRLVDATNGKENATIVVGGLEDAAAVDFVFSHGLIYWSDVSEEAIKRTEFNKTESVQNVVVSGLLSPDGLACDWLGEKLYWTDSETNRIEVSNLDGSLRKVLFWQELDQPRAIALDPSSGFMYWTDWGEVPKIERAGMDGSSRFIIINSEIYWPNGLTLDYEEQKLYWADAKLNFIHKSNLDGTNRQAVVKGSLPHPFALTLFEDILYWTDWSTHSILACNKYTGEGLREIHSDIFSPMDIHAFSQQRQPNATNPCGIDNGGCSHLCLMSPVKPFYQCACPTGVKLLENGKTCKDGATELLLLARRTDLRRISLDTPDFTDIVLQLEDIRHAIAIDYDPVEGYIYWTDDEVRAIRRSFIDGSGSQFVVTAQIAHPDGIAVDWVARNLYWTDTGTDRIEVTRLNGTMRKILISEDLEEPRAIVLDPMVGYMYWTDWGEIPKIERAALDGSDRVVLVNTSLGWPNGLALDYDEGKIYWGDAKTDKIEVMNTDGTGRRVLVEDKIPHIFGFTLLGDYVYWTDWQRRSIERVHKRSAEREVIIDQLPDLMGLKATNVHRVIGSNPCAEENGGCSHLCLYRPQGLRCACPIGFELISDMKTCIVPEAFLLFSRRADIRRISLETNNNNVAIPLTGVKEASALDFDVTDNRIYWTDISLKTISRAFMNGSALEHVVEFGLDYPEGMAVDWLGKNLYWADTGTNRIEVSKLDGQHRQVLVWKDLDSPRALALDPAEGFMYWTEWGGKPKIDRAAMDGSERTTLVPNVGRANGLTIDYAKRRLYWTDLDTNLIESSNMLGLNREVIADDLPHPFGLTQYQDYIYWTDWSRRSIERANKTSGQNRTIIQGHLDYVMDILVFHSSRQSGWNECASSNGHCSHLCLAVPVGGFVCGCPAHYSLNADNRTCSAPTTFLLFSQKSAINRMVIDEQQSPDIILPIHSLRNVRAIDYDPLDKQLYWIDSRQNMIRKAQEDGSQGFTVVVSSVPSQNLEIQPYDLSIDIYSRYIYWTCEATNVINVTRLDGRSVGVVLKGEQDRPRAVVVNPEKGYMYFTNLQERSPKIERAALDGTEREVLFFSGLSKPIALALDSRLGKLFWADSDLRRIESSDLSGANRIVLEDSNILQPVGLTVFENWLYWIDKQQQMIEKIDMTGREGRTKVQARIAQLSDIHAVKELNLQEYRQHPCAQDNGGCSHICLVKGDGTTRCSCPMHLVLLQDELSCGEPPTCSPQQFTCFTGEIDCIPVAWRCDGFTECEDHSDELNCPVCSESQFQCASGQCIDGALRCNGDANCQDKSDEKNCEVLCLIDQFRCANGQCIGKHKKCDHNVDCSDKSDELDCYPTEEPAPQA

Chain of UniProt Q07065 (Q07065 128-602): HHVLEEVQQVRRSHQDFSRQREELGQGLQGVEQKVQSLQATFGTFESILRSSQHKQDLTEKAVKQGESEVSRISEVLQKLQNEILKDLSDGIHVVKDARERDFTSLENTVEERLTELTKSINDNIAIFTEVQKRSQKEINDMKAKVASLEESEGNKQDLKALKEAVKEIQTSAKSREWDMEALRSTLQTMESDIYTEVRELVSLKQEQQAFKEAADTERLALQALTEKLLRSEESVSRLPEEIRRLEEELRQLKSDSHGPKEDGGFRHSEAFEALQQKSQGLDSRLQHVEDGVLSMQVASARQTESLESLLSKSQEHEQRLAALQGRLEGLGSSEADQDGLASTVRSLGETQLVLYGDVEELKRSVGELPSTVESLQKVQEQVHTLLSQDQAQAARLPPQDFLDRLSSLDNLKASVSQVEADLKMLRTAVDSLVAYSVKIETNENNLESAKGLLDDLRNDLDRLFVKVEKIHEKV

In the case of DKK1 (from UniProt O94907), the Kd in series [1] and in series [2] was 0.42 nM throughout.

In general, Kd refers to the concentration at which binding is half-saturated.
